Data on one molecule can be found in article doi:10.1101/2024.04.18.590116 (bioRxiv, 2024).

The target of the assay is T1, 6xHis-MPK3 (rice, UniProt Q10N20 1-369).
T1 sequence (looked up): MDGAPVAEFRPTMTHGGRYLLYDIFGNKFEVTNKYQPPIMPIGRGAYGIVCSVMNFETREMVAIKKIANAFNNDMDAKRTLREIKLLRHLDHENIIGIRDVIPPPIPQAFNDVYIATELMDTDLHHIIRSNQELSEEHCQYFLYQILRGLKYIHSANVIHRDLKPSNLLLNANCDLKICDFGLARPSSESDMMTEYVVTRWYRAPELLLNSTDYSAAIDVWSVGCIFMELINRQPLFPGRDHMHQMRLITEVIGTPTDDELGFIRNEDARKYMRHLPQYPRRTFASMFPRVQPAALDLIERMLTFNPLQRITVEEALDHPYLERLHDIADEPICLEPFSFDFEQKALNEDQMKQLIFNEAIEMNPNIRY
The assay can be described thus: pull-down.

B1: GST-KRP3 (natural protein, rice (Oryza sativa), UniProt Q2R185 1-225, looked up)
chain: MGKYLRSSCKQQQQPSSPAAVASVAAAAVSSYSYLTLRSGRRVPAAAAAAGGSACRRRHRRGGRRGCAKNGAGSARACGARSPTSSASSGQRRRCEAVECSHGGGRAELSRSPPLGNSVVVVSGDVVSGERKSLKPNSCSREVAAEHAGEHKHNPAAAAAAGRRPPLSPPEAEIEAFFAAAELAERRRFAEKYNYDIALDRPLQGRYEWEPTVPNFDVAKDVTDM
In the case of B1, the binding result is recorded as “binds”.
